From PMC12313933 (Nature Communications, 2025)
Changes are numbered by the printed parent chain. Names and notes keep the numbering of the source.

B1: MIF(Y100H) variant (enzyme, human)
chain: MPMFIVNTNVPRASVPDGFLSELTQQLAQATGKPPQYIAVHVVPDQLMAFGGSSEPCALCSLHSIGKIGGAQNRSYSKLLCGLLAERLRISPDRVYINYHDMNAANVGWNNSTFA
B2: MIF(S61H/Y100H) variant (enzyme, human)
chain: B1 chain with S61H

Key:
[1] = target: the molecule itself; assay: dynamic light scattering
[2] = target: the molecule itself; assay: crystal structure

| Protein | stoichiometry N [1] | binding result [2] |
| --- | --- | --- |
| B1 | 3 | – |
| B2 | – | binds |
